Test results reported in publication doi:10.1101/2020.02.29.971473.

Biological target: human PCNA, purified (immobilised on the GLC chip) (human), P12004
Test: SPR
Details: remark: other sources report otherwise

Chain of human PCNA, purified (immobilised on the GLC chip) (human), P12004 (P12004 whole entry): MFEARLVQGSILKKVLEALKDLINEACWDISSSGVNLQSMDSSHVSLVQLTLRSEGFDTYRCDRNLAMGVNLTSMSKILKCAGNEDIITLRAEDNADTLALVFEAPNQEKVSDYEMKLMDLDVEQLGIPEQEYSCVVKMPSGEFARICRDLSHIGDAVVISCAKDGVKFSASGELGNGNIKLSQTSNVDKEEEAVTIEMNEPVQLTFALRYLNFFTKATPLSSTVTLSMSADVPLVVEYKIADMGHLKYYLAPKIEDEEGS

B1: p125 (PolD1), catalytic subunit of human DNA polymerase delta, purified, P28340 1-1107 (natural protein)
chain: MDGKRRPGPGPGVPPKRARGGLWDDDDAPRPSQFEEDLALMEEMEAEHRLQEQEEEELQSVLEGVADGQVPPSAIDPRWLRPTPPALDPQTEPLIFQQLEIDHYVGPAQPVPGGPPPSRGSVPVLRAFGVTDEGFSVCCHIHGFAPYFYTPAPPGFGPEHMGDLQRELNLAISRDSRGGRELTGPAVLAVELCSRESMFGYHGHGPSPFLRITVALPRLVAPARRLLEQGIRVAGLGTPSFAPYEANVDFEIRFMVDTDIVGCNWLELPAGKYALRLKEKATQCQLEADVLWSDVVSHPPEGPWQRIAPLRVLSFDIECAGRKGIFPEPERDPVIQICSLGLRWGEPEPFLRLALTLRPCAPILGAKVQSYEKEEDLLQAWSTFIRIMDPDVITGYNIQNFDLPYLISRAQTLKVQTFPFLGRVAGLCSNIRDSSFQSKQTGRRDTKVVSMVGRVQMDMLQVLLREYKLRSYTLNAVSFHFLGEQKEDVQHSIITDLQNGNDQTRRRLAVYCLKDAYLPLRLLERLMVLVNAVEMARVTGVPLSYLLSRGQQVKVVSQLLRQAMHEGLLMPVVKSEGGEDYTGATVIEPLKGYYDVPIATLDFSSLYPSIMMAHNLCYTTLLRPGTAQKLGLTEDQFIRTPTGDEFVKTSVRKGLLPQILENLLSARKRAKAELAKETDPLRRQVLDGRQLALKVSANSVYGFTGAQVGKLPCLEISQSVTGFGRQMIEKTKQLVESKYTVENGYSTSAKVVYGDTDSVMCRFGVSSVAEAMALGREAADWVSGHFPSPIRLEFEKVYFPYLLISKKRYAGLLFSSRPDAHDRMDCKGLEAVRRDNCPLVANLVTASLRRLLIDRDPEGAVAHAQDVISDLLCNRIDISQLVITKELTRAASDYAGKQAHVELAERMRKRDPGSAPSLGDRVPYVIISAAKGVAAYMKSEDPLFVLEHSLPIDTQYYLEQQLAKPLLRIFEPILGEGRAEAVLLRGDHTRCKTVLTGKVGGLLAFAKRRNCCIGCRTVLSHQGAVCEFCQPRESELYQKEVSHLNALEERFSRLWTQCQRCQGSLHEDVICTSRDCPIFYMRKKVRKDLEDQEQLLRRFGPPGPEAW
- Kd: 100 nM
- response units: 90 RU
